According to paper PMC3530532, “Corticosteroid-Binding Globulin: Structure-Function Implications from Species Differences” (PLoS ONE, 2012):
Positions count from the first letter of the chain named. Numbers in names are those of the source.

T1: Rat CBG-WT (Rattus norvegicus, UniProt P31211)
T1 construct: residues 5 to 374 of rat CBG (P31211); GST (N, cleaved yes); made in house; host or cells: E. coli BL21 Star (DE3)
T1 sequence (P31211 27-396): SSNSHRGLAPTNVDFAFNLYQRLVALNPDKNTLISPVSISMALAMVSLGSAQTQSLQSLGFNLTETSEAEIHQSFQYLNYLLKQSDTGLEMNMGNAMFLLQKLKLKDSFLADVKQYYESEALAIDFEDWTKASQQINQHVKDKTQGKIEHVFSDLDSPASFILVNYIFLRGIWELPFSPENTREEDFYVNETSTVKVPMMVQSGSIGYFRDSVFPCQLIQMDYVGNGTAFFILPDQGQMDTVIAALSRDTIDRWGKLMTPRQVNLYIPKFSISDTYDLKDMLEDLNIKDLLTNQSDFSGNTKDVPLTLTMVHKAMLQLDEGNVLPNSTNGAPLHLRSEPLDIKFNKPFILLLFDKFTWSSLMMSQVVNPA

B1: CBG-RCL2: rat CBG variant CBG-RCL1 plus mutations P329T and N333T (protein, UniProt P31211 23-396, looked up, variant A335V P336T P329T N333T)
Corticosteroid-binding …: STNESSNSHRGLAPTNVDFAFNLYQRLVALNPDKNTLISPVSISMALAMVSLGSAQTQSLQSLGFNLTETSEAEIHQSFQYLNYLLKQSDTGLEMNMGNAMFLLQKLKLKDSFLADVKQYYESEALAIDFEDWTKASQQINQHVKDKTQGKIEHVFSDLDSPASFILVNYIFLRGIWELPFSPENTREEDFYVNETSTVKVPMMVQSGSIGYFRDSVFPCQLIQMDYVGNGTAFFILPDQGQMDTVIAALSRDTIDRWGKLMTPRQVNLYIPKFSISDTYDLKDMLEDLNIKDLLTNQSDFSGNTKDVPLTLTMVHKAMLQLDEGNVLTNSTTGVTLHLRSEPLDIKFNKPFILLLFDKFTWSSLMMSQVVNPA
B2: CBG-RCL3: rat CBG variant CBG-RCL2 plus R174K, D323N, G325E and N326G (protein, UniProt P31211 23-396, looked up, variant A335V P336T P329T N333T R174K D323N G325E N326G)
Corticosteroid-binding …: B1 Corticosteroid-binding … with R174K, D323N, G325E, N326G

Experiments:
[1] = Thermal denaturation monitored by CD spectroscopy; format: physicochemical; settings: for thermal unfolding temperature / thermal stability: CD at 222 or 220 nm, 1°C/min, 10 mM potassium phosphate pH 7.4; for change of thermal stability upon RCL cleavage: elastase-cleaved vs uncleaved, CD-monitored
Protocol: Heat-induced unfolding transitions were recorded at protein concentrations between 0.5 and 0.7 µM in 10 mM potassium phosphate (pH 7.4). The samples were heated at a rate of 1°C/min in a 1 cm cell and the ellipticity was monitored at 222 or 220 nm. The sensitivity was set to 50 mdeg with a bandwidth of 1 nm and 8 sec response time.

Rat CBG-WT = biological target: T1, Rat CBG-WT; assay: Isothermal titration calorimetry, steroid titrated to rat CBG-WT; format: binding; settings: ITC, 25°C
Protocol: The coding sequences of residues 11 to 383 of human CBG (Swiss-Prot entry P08185) and residues 5 to 374 of rat CBG (P31211) were cloned into a pGEX-2T vector (GE Healthcare, Uppsala), yielding N-terminal glutathione-S-transferase (GST) fusion proteins. Mutations were introduced using a two-stage PCR procedure based on the QuikChange (Stratagene, Santa Clara) site-directed mutagenesis protocol. All experiments with human CBG were conducted with a mutant in which surface residue Lys126 was replaced by alanine in order to facilitate crystallization. Wild-type rat CBG (rat CBG-WT) and rat CBG mutants CBG-RCL1, CBG-RCL2 and CBG-RCL3 were produced to probe the function of the RCL residues in rat CBG. All gene constructs were confirmed by DNA sequencing prior to protein production.
The GST-tagged human and rat CBG variants were produced in E. coli BL21 Star™ (DE3) cells (Invitrogen, Carlsbad) using the ZYM-5052 auto-inducing medium. For each variant, 10 L of ZYM-5052 medium containing 100 µg/mL ampicillin were inoculated with an overnight culture of a single clone. The flasks were incubated at 37°C until the optical density at 600 nm reached 0.3. The temperature was then lowered to 20°C, and the cells were allowed to grow for an additional 20 h. The pellet was resuspended in PBS buffer (pH 7.4) containing 5 mM EDTA after cell harvesting (4 mL of buffer per gram of pellet).
The protein samples were dialyzed against ITC buffer (20 mM potassium phosphate, 50 mM NaCl, pH 7.4) and titrated with steroids in a VP-ITC microcalorimeter (Microcal, Piscataway). All solutions were filtered (0.2 µm filter pore size) and degassed for 30 min prior to the titration experiments. The sample cell was filled with protein solution containing 15 µM rat CBG or 20 µM human CBG and titrated with steroid solutions containing 150 µM and 200 µM ligand, respectively. The titrations consisted of an initial injection of 2 µL followed by 25 consecutive injections of 10 µL ligand solution at 25°C. A spacing of 240 sec between the injections was used to allow a return to the baseline. Data points from the initial injection, which are generally affected by diffusion during the initial equilibration period after experiment setup, were discarded prior to data analysis. […] The binding curve was generated by plotting the heats of injections against the ratio of ligand to protein in the cell. Integrated heat data were analyzed using nonlinear regression fit with a one-site-binding model in the Origin-7™ software provided with the VP-ITC. Changes in the free energy and entropy can be calculated using the equation: ΔG° = −RTlnK = ΔH°−TΔS°. In this equation ΔG° is the change in Gibbs free energy, R the universal gas constant, T the temperature, and K the association constant. The change in enthalpy is denoted as ΔH°, and ΔS° is the change in entropy under standard conditions. The data shown in Table 2 were obtained from single titrations of each complex.

Row | Molecule | thermal unfolding temperature / thermal stability [1] | change of thermal stability upon RCL cleavage [1] | also measured
1 | cleaved human alpha-1-antitrypsin: human alpha-1-antitrypsin after cleavage of the RCL | 90 °C | – | –
2 | C[C@]12C[C@H](O)[C@H]3[C@@H](CCC4=CC(=O)CC[C@@]43C)[C@@H]1CC[C@@H]2C(=O)CO [Corticosterone] | – | – | TΔS° (Rat CBG-WT; rat CBG-WT): -14.6 kcal/mol; ΔG° (Rat CBG-WT; rat CBG-WT): -10.2 kcal/mol; ΔH° (Rat CBG-WT; rat CBG-WT): -24.76 kcal/mol; Kd (Rat CBG-WT; single titration, uncleaved rat CBG-WT): 37 ± 2 nM
3 | uncleaved human alpha-1-antitrypsin: human alpha-1-antitrypsin, archetypical member of the SERPIN family, used to validate the setup | about 60 °C | – | –
4 | B1 | – | neither of these humanized rat CBG variants displayed an increased thermal stability | –
5 | B2 | – | neither of these humanized rat CBG variants displayed an increased thermal stability | –
